Tested on: K4 kissing-loop RNA reporter
Experiment: apparent KD of K4 kissing-loop reporter; higher = weaker reporter binding
Settings: Eterna round: R107
Experimental: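 RNA-MaP round R107: designed RNA switches with theophylline, tryptophan, arginine or FMN aptamers are transcribed on-chip within common flanks. They are titrated with a labelled K4 kissing-loop RNA reporter in RNA-MaP buffer (100 mM Tris pH 7.5, 80 mM KCl, 4 mM MgCl2), without ligand or with the indicated ligand. Median apparent KD per design.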

[1] = input ligand: theophylline 20 uM
[2] = input ligand: tryptophan 2.4 mM
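Also: bound reporter read as fluorescence of individual clusters on recovered sequencing chips by microscopy, with normalized cluster intensities fitted with a binding model.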

Row | Sequence | apparent KD of K4 kissing-loop reporter (input ligand: FMN 200 uM) [nM] | apparent KD of K4 kissing-loop reporter (input ligand: arginine 13.2 mM) [nM] | apparent KD of K4 kissing-loop reporter (input ligand: none) [nM] | apparent KD of K4 kissing-loop reporter [1] [nM] | apparent KD of K4 kissing-loop reporter [2] [nM]
1 | AUUAACCUUUUAGCUAUAUUUUUAUGUGAUACCAGACAUGGCAUAGUCCCUUGGCAGCACAUUAUAUUUACGAGUGAUGUUCGAA [JR_SSTheophyA_Sub026] | 243 | 250 | 261 | 271 | 194
2 | AUUAAUUUCAGAGGAUAUCGUUAUUUUUUAUAUUUUAUUCAUUUAUGCAGUGAUGUUGCUAUUAAUCGAGAAGGCUGAUUUAUAA [JR_ExcFMNB_Sub003] | 85.5 | 114 | 47.1 | 120 | 49.4
3 | GUCCCGAGUGAUGUUCGGGUCGUUCGGGAAGGAGCGCCCGCAAGGGCAGGUAGGUCGCCCGGAUCCCUCAGGUAACUGAGGGACC [#2 Same State - Arginine A Attempt #26 (HarryS)] | 632 | 428 | 491 | 467 | 465
4 | CCCUCACGAGUGAUGUUCGUAGGGUACAGUCAGGAUAUCAUGCGGUUGAGAAGGGACAGAGAGGGCGGCGGCGGGUUGCUCAUCG [Rabele] | 150 | 125 | 153 | 166 | 124
5 | UGUAUGUGAUUUGAUACCAGACCAUCUUGUGAAUGAUGAGUGAUGUUUAUUAUGGUUUGGGUCCCUUGGCAGCAAAUCGCAUACU [KL-SSTheoB25] | 926 | 717 | 976 | 781 | 803
6 | CCUAUCUCAUACGAUACCAGUCUAUUGUUACGAGUGAUGUUCGAAUAUUUGCCAUUCAAUGACCCUUGGCAGCGUAUGGGAUAGG [Ex Theophylline B K4 10] | 502 | 519 | 525 | 548 | 486
7 | AGGAUCACGUCAGUGAUGUUGACAAGAGAUACCAGAGACGAAAGUCUCCCUUGGCAGCUCAUCGUGAUCCGUGACAAAGGUCACA [Omei KL hio A SS C v3] | 262 | 135 | 143 | 155 | 189
8 | UUUAACGAGUGAUGUUCGAAAAGUAAUGGUUAGGAUAUCGUUUUUUCGAGAAGGAACCUCGAAGUGAUACGAAAGUAUCGCUUCG [FMN A 2] | 173 | 428 | 264 | 466 | 240
